Values quoted from earlier work as cited in publication PMC11899465.
Where two headings read alike, the source gives them in different places.

What was measured:
[1] = molecular target: CD137 (Homo sapiens) (UniProt Q07011)
[2] = molecular target: CD137 (Homo sapiens) (UniProt Q07011); remark: listed apart in the source

Sequence of CD137 (Homo sapiens) (Q07011 24-255): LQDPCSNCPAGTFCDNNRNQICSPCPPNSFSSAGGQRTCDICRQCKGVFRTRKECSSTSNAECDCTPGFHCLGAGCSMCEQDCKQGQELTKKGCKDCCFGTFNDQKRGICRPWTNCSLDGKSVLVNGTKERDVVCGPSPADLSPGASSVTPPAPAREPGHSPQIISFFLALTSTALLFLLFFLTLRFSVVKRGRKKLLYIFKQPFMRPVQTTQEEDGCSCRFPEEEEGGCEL
Sequence of CD137L (monomer) (P41273 whole entry): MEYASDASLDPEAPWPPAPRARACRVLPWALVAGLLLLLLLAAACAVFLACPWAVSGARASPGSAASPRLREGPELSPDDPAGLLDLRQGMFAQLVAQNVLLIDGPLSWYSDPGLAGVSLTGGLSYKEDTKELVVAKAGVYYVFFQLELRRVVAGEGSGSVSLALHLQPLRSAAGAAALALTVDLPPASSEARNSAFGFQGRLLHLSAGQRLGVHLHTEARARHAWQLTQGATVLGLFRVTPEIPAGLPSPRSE
Sequence of CD137L (homotrimer) (P41273 whole entry): as above

Substance	Kd [1]	Kd [2]
CD137L (homotrimer) (from UniProt P41273)	1.2 nM	
CD137L (monomer) (from UniProt P41273)		55.2 nM
